{"source": "patent US20190300580A1", "key": {"[1]": {"biological_target": "wild type dengue serotype 2 exodomain, HEK293-produced (The Native Antigen Company DENV2-ENV) (dengue virus serotype 2)", "assay": "ELISA, His-tagged exodomain captured by anti-His-tag antibody, 4G2 titrated (FIG. 5a)"}, "[2]": {"biological_target": "wild type dengue serotype 4 exodomain (The Native Antigen Company DENV4-ENV) (dengue virus serotype 4)", "assay": "ELISA, His-tagged exodomain captured by anti-His-tag antibody, 4G2 titrated (FIG. 5a)"}, "[3]": {"biological_target": "Dengue serotype 3 VLP (The Native Antigen Company), wild type (dengue virus serotype 3)", "assay": "competition ELISA on VLP, unlabelled 4G2 at 10 micrograms per ml against biotinylated 4G2"}}, "data": [{"substance": "fusion-loop antibody 4G2 (The Native Antigen Company AbFLAVENV-4G2)", "values": [{"measurement": "low antibody concentration still giving a signal above background", "setting": "[1]", "result": 250, "unit": "pg/mL"}, {"measurement": "low antibody concentration still giving a signal above background", "setting": "[2]", "result": 250, "unit": "pg/mL"}, {"measurement": "% inhibition", "setting": "[3]", "result": 80, "unit": "%"}]}]}
